B1: B-box zinc finger protein 21 (Arabidopsis thaliana (Mouse-ear cress)), Q9LQZ7 (parent)
chain: MKIRCDVCDKEEASVFCTADEASLCGGCDHQVHHANKLASKHLRFSLLYPSSSNTSSPLCDICQDKKALLFCQQDRAILCKDCDSSIHAANEHTKKHDRFLLTGVKLSATSSVYKPTSKSSSSSSSNQDFSVPGSSISNPPPLKKPLSAPPQSNKIQPFSKINGGDASVNQWGSTSTISEYLMDTLPGWHVEDFLDSSLPTYGFSKSGDDDGVLPYMEPEDDNNTKRNNNNNNNNNNNTVSLPSKNLGIWVPQIPQTLPSSYPNQYFSQDNNIQFGMYNKETSPEVVSFAPIQNMKQQGQNNKRWYDDGGFTVPQITPPPLSSNKKFRSFW
partner: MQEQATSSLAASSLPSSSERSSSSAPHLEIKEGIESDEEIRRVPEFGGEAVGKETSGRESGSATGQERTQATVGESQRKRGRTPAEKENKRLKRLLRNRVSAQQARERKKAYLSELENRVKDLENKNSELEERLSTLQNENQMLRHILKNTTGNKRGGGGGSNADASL

Variants of: B1
Details: with hy5_arath HY5, O24646

| effect of a mutation on the interaction | Variant |
| --- | --- |
| disrupting interaction | MKIRCDVCDKEEASVFCTADEASLCGGCDHQVHHANKLASKHLRFSLLYPSSSNTSSPLCDICQDKKALLFCQQDRAILCKDCASSIHAANEHTKKHDRFLLTGVKLSATSSVYKPTSKSSSSSSSNQDFSVPGSSISNPPPLKKPLSAPPQSNKIQPFSKINGGDASVNQWGSTSTISEYLMDTLPGWHVEDFLDSSLPTYGFSKSGDDDGVLPYMEPEDDNNTKRNNNNNNNNNNNTVSLPSKNLGIWVPQIPQTLPSSYPNQYFSQDNNIQFGMYNKETSPEVVSFAPIQNMKQQGQNNKRWYDDGGFTVPQITPPPLSSNKKFRSFW [D84A] |
| disrupting interaction | MKIRCDVCDKEEASVFCTADEASLCGGCDHQVHHANKLASKHLRFSLLYPSSSNTSSPLCDICQDKKALLFCQQARAILCKDCDSSIHAANEHTKKHDRFLLTGVKLSATSSVYKPTSKSSSSSSSNQDFSVPGSSISNPPPLKKPLSAPPQSNKIQPFSKINGGDASVNQWGSTSTISEYLMDTLPGWHVEDFLDSSLPTYGFSKSGDDDGVLPYMEPEDDNNTKRNNNNNNNNNNNTVSLPSKNLGIWVPQIPQTLPSSYPNQYFSQDNNIQFGMYNKETSPEVVSFAPIQNMKQQGQNNKRWYDDGGFTVPQITPPPLSSNKKFRSFW [D75A] |
| disrupting interaction | MKIRCDVCDKEEASVFCTAAEASLCGGCDHQVHHANKLASKHLRFSLLYPSSSNTSSPLCDICQDKKALLFCQQDRAILCKDCDSSIHAANEHTKKHDRFLLTGVKLSATSSVYKPTSKSSSSSSSNQDFSVPGSSISNPPPLKKPLSAPPQSNKIQPFSKINGGDASVNQWGSTSTISEYLMDTLPGWHVEDFLDSSLPTYGFSKSGDDDGVLPYMEPEDDNNTKRNNNNNNNNNNNTVSLPSKNLGIWVPQIPQTLPSSYPNQYFSQDNNIQFGMYNKETSPEVVSFAPIQNMKQQGQNNKRWYDDGGFTVPQITPPPLSSNKKFRSFW [D20A] |

Reference: IntAct's records for PubMed 17965270
